The results in this text go back to publication PMC6189696, “Choline sulfatase from Ensifer (Sinorhizobium) meliloti: Characterization of the unmodified enzyme” (Biochemistry and Biophysics Reports, 2015).

Data set [1] addresses T1, choline-O-sulfatase (COS) (Sinorhizobium meliloti, UniProt O69787).
T1 construct: gene betC; full length, C-terminal His6 tag kept, pET26b+, codon-optimized gene, E. coli BL21(DE3); 59 kDa, homodimer (123 kDa); active-site Cys54 unmodified (no formylglycine)
As to the kind of experiment: isothermal titration calorimetry, multiple injections. The format is biochemical. The following applies: substrate inhibition constant, second site; 200 mM Tris-HCl pH 7.5, 500 mM NaCl, 25 °C; enzyme without FGly. An excerpt: (§1) isothermal titration calorimetry, multiple injections on choline-O-sulfatase (COS)
In general terms: ITC needs no label: the signal is the heat of the interaction.

Data set [2] has as its target T1, choline-O-sulfatase (COS). As to the kind of experiment: spectrophotometric pNPS hydrolysis, […] nm. Format: biochemical.
Substrate in data set [3]: O=[N+]([O-])c1ccc(OS(=O)(=O)O)cc1
As to the kind of experiment: purified protein. The format is biochemical, Sinorhizobium meliloti. The following applies: 200 mM Tris-HCl pH 7.5, 500 mM NaCl, 25 °C, 1-80 mM substrate, no saturation reached, enzyme without FGly.

Substrate in data set [4]: Cc1cc(=O)oc2cc(OS(=O)(=O)O)ccc12
As to the kind of experiment: purified protein. The following applies: 200 mM Tris-HCl pH 7.5, 500 mM NaCl, 25 °C, 1-20 mM substrate, no saturation reached, enzyme without FGly. The format is biochemical, Sinorhizobium meliloti.

Substrate in data set [5]: C[N+](C)(C)CCOS(=O)(=O)[O-]
In words: isothermal titration calorimetry, multiple injections. The following applies: 200 mM Tris-HCl pH 7.5, 500 mM NaCl, 25 °C, fit with substrate inhibition, enzyme without FGly. Format: biochemical, Sinorhizobium meliloti.
Excerpt: as §1

Data set [6] concerns the molecule itself. As to the kind of experiment: SEC; analytical gel filtration on Superdex 200 10/300 GL, non-denaturing conditions, calibrated with Bio-Rad Gel Filtration Standard (1.35-670 kDa). On the technique in general: SEC sorts molecules by how far they enter the pores of the column.

As to `C[N+](C)(C)CCOS(=O)(=O)[O-]` [choline-O-sulfate], the “Ki (mM) ^a” value in data set [1] is 11.4 ± 1.1 mM.

As usually defined, the Ki is a dissociation constant, usually derived from enzyme kinetics or from competition with a known ligand. With `C[N+](C)(C)CCO` [choline], the Ki in data set [2] is 57.8 mM.

B1: Ensifer (Sinorhizobium) meliloti choline-O-sulfatase (enzyme, UniProt O69787 1-512, looked up)
chain: MTTGKPNILIIMVDQLNGKLFPDGPADFLHAPNLKALAKRSARFHNNYTSSPLCAPARASFMAGQLPSRTRVYDNAAEYQSSIPTYAHHLRRAGYYTALSGKMHFVGPDQLHGFEERLTTDIYPADFGWTPDYRKPGERIDWWYHNLGSVTGAGVAEITNQMEYDDEVAFLANQKLYQLSRENDDESRRPWCLTVSFTHPHDPYVARRKFWDLYEDCEHLTPEVGAIPLDEQDPHSQRIMLSCDYQNFDVTEENVRRSRRAYFANISYLDEKVGELIDTLTRTRMLDDTLILFCSDHGDMLGERGLWFKMNFFEGSARVPLMIAGPGIAPGLHLTPTSNLDVTPTLADLAGISLEEVRPWTDGVSLVPMVNGVERTEPVLMEYAAEASYAPLVAIREGKWKYVYCALDPEQLFDLEADPLELTNLAENPRGPVDQATLTAFRDMRAAHWDMEAFDAAVRESQARRWVVYEALRNGAYYPWDHQPLQKASERYMRNHMNLDTLEESKRYPRGE
notes: choline-O-sulfatase (betC gene product) of Ensifer (Sinorhizobium) meliloti, GenBank AAC13371.1; gene codon optimized for E. coli and subcloned in pET26b+; expected 59 kDa with the His6-tag; Active-site Cys54 is unmodified (no formylglycine) as expressed in E. coli; two of the six cysteines form a disulfide bridge; also called COS; choline sulfatase; source: E. coli BL21 (DE3), purified (His-Trap …)
A word on the Km: it is the substrate concentration at which the rate is half of its maximum. What is called kcat is the maximal rate divided by the concentration of active sites. In general, kcat/Km refers to the turnover number divided by the Michaelis constant. One may read the stoichiometry N as a count of units in the complex or per binding partner. For the molecule B1, in data set [3], the Km worked out at 75.8 ± 15.0 mM, the kcat was determined as 0.035 ± 0.004 s⁻¹ and the kcat/Km came out at 0.46 ± 0.11 M⁻¹ s⁻¹. In data set [4], the Km was 11.8 ± 1.4 mM, the kcat is 0.043 ± 0.007 s⁻¹ and the kcat/Km was determined as 3.64 ± 0.73 M⁻¹ s⁻¹. Also, in data set [5], the Km came to 11.1 ± 1.0 mM, the turnover number (kcat) was 0.27 ± 0.02 s⁻¹ and the kcat/Km worked out at 24.3 ± 2.84 M⁻¹ s⁻¹. For the same molecule, the “stoichiometry N” value in data set [6] came out at 2.
